Data reported in paper PMC6771244, “VSTM2A suppresses colorectal cancer and antagonizes Wnt signaling receptor LRP6” (Theranostics, 2019).

T1: recombinant human LRP-6 Fc Chimera Protein (R&D, 1505-LR-025) (human, UniProt O75581 20-1370)
T1 construct: human LRP6 part of a commercial Fc chimera; also called LRP6 (1505-LR-025); source: bought: R&D
T1 sequence (looked up): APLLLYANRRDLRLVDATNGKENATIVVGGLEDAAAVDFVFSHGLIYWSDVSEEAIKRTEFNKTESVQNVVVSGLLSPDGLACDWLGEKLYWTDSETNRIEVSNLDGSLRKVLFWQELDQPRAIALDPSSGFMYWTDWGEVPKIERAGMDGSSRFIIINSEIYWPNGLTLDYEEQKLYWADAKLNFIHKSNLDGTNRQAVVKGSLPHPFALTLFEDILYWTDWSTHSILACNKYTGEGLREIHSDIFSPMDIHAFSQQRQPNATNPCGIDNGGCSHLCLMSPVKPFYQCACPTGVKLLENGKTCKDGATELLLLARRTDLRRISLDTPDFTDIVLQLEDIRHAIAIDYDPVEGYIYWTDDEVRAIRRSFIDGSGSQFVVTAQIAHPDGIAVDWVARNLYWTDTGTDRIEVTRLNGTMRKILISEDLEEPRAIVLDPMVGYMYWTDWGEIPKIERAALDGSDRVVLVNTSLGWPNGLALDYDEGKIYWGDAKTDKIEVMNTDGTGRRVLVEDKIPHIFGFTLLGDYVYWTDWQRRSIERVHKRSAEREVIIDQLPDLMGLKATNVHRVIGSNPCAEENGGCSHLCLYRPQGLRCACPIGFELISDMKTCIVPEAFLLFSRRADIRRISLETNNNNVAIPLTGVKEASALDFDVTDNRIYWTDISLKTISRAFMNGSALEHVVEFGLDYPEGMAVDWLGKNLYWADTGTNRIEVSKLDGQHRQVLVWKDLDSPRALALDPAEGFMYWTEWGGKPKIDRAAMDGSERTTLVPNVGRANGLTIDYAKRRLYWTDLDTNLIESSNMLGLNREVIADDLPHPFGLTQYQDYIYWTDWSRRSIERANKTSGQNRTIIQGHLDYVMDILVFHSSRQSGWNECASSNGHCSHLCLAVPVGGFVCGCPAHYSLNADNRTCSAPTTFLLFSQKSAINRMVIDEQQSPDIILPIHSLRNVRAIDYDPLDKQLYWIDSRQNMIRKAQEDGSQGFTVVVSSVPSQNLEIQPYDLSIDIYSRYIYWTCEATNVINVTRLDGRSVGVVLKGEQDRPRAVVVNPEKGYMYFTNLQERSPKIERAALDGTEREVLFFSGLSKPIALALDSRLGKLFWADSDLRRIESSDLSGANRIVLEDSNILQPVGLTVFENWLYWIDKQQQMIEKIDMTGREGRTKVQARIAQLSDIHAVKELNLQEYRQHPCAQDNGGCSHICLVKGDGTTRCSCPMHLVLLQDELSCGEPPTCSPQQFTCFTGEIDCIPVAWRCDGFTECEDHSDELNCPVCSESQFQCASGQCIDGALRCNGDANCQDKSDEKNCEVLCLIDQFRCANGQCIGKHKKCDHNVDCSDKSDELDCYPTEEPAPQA


How the values were obtained:
DKK1 (Homo sapiens) = DKK1 (Homo sapiens) (UniProt O94907); test: SPR; settings: cited from earlier work
[1] = molecular target: T1, recombinant human LRP-6 Fc Chimera …; test: ELISA; titration ELISA; 5 ug/ml LRP-6 Fc immobilised on the plate at 4 °C for 12 h, blocked with 5% BSA in PBS; VSTM2A His-tag serial dilution (start 100 ug/ml, factor 4) for 2 h at room temperature, in duplicate; interaction fixed by DTSSP; pNPP read at OD405; settings: both partners purified

Chain of DKK1 (Homo sapiens) (O94907 32-266): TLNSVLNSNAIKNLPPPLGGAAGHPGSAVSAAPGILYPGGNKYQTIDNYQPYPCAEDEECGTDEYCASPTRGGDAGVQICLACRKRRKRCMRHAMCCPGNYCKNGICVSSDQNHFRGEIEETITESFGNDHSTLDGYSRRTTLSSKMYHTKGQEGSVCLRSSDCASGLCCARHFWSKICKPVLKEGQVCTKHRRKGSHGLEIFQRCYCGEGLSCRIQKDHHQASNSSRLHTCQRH

Row | Kd [1] [nM] | Molecule | Kd (DKK1 (Homo sapiens)) [nM]
1 |  | LRP6 (from UniProt O75581) | 0.6
2 | 9.19 | Recombinant Human VSTM2A His-tag Protein (R&D, 10037-VT) (ligand, UniProt Q8TAG5 25-236, looked up, human VSTM2A, commercial recombinant protein; also called recombinant VSTM2A; VSTM2A pure protein; source: bought: R&D) SQAKFTEFPRNVTATEGQNVEMSCAFQSGSASVYLEIQWWFLRGPEDLDPGAEGAGAQVELLPDRDPDSDGTKISTVKVQGNDISHKLQISKVRKKDEGLYECRVTDANYGELQEHKAQAYLKVNANSHARRMQAFEASPMWLQDMKPRKNVSAAIPSSIHGSANQRTHSTSSPQVVAKIPKQSPQSGARIATSHGLSVLLLVCGFVKGALL | 
